# Assay results taken from patent publication US20240018502A1.
# Changes are numbered by the printed parent chain. Numbers in names are those of the source.
# B1: MTSP-1 protease domain Q38H/I41S/D60bT/F60eS/Y60gW/D96K/F97G/F99L/C122S/G151H/Q175L/Q192D (enzyme)
# chain: VVGGTDADEGEWPWQVSLHALGHGHSCGASLISPNWLVSAAHCYIDTRGSRWSDPTQWTAFLGLHDQSQRSAPGVQERRLKRIISHPFFNKGTLDYDIALLELEKPAEYSSMVRPISLPDASHVFPAGKAIWVTGWGHTQYGGTHALILQKGEIRVINQTTCENLLPQLITPRMMCVGFLSGGVDSCDGDSGGPLSSVEADGRIFQAGVVSWGDGCAQRNKPGVYTRLPLFRDWIKENTGV
# B2: MTSP-1 protease domain I41G/Y60gW/F99L/C122S/Q175R/Q192S (enzyme)
# chain: B1 chain with H23Q, S26G, T47D, S50F, K91D, G92F, H145G, L169R, D188S
# B3: MTSP-1 protease domain I41E/F97L/F99L/C122S/Q192A (enzyme)
# chain: B1 chain with H23Q, S26E, T47D, S50F, W52Y, K91D, G92L, H145G, L169Q, D188A
# B4: MTSP-1 protease domain I41A/Y60gW/D96F/F97G/F99M/C122S/Q175W/Q192A (enzyme)
# chain: B1 chain with H23Q, S26A, T47D, S50F, K91F, L94M, H145G, L169W, D188A
# B5: MTSP-1 protease domain I41S/F97L/F99L/C122S/Q192S (enzyme)
# chain: B1 chain with H23Q, T47D, S50F, W52Y, K91D, G92L, H145G, L169Q, D188S
# B6: MTSP-1 protease domain I41S/F97D/F99L/C122S/Q192V (enzyme)
# chain: B1 chain with H23Q, T47D, S50F, W52Y, K91D, G92D, H145G, L169Q, D188V
# B7: MTSP-1 protease domain I41S/F97V/T98N/F99L/C122S/Q192S (enzyme)
# chain: B1 chain with H23Q, T47D, S50F, W52Y, K91D, G92V, T93N, H145G, L169Q, D188S
# B8: MTSP-1 protease domain I41S/ins97aV/C122S/Q192D (enzyme)
# chain: VVGGTDADEGEWPWQVSLHALGQGHSCGASLISPNWLVSAAHCYIDDRGFRYSDPTQWTAFLGLHDQSQRSAPGVQERRLKRIISHPFFNDFVTFDYDIALLELEKPAEYSSMVRPISLPDASHVFPAGKAIWVTGWGHTQYGGTGALILQKGEIRVINQTTCENLLPQQITPRMMCVGFLSGGVDSCDGDSGGPLSSVEADGRIFQAGVVSWGDGCAQRNKPGVYTRLPLFRDWIKENTGV
# B9: MTSP-1 protease domain I41T/ins97aA/F99Y/C122S/Q175L/Q192A (enzyme)
# chain: B8 chain with S26T, V93A, F95Y, Q170L, D189A
# B10: MTSP-1 protease domain I41A/ins97aY/F99L/C122S/Q175R/Q192H (enzyme)
# chain: B8 chain with S26A, V93Y, F95L, Q170R, D189H
# B11: MTSP-1 protease domain Q38H/I41T/D96K/ins97aL/C122S/G151N/Q192A (enzyme)
# chain: B8 chain with Q23H, S26T, D91K, V93L, G146N, D189A
# B12: MTSP-1 protease domain Q38H/I41A/D96R/ins97aQ/C122S (enzyme)
# chain: B8 chain with Q23H, S26A, D91R, V93Q, D189Q
# B13: MTSP-1 protease domain I41T/F97R/ins97aV/T98L/C122S/Q192S (enzyme)
# chain: B8 chain with S26T, F92R, T94L, D189S
# B14: MTSP-1 protease domain Q38Y/I41A/D96I/ins97aQ/C122S (enzyme)
# chain: B8 chain with Q23Y, S26A, D91I, V93Q, D189Q
# B15: MTSP-1 protease domain Q38H/I41S/D96Q/ins97aT/C122S/G151N/Q192A (enzyme)
# chain: B8 chain with Q23H, D91Q, V93T, G146N, D189A
# B16: MTSP-1 protease domain Q38H/I41A/D96A/ins97aA/C122S/G151D/Q192T (enzyme)
# chain: B8 chain with Q23H, S26A, D91A, V93A, G146D, D189T
# B17: MTSP-1 Q38H/I41S/D60bT/Y60gW/D96K/F97G/ins97aV/T98P/F99L/C122S/G151H/Q175L/Q192D (enzyme)
# chain: B8 chain with Q23H, D47T, Y52W, D91K, F92G, T94P, F95L, G146H, Q170L
# B18: MTSP-1 protease domain I41S/Y60gW/ins97aN/F99L/C122S/Q175R/Q192T (enzyme)
# chain: B8 chain with Y52W, V93N, F95L, Q170R, D189T
# B19: MTSP-1 protease domain Q38W/I41S/D96R/ins97aA/C122S/G151N/Q192A (enzyme)
# chain: B8 chain with Q23W, D91R, V93A, G146N, D189A
# B20: MTSP-1 protease domain Q38H/I41S/D96Q/ins97aA/C122S/Q192T (enzyme)
# chain: B8 chain with Q23H, D91Q, V93A, D189T
# B21: MTSP-1 protease domain Q38Y/I41T/D96M/ins97aS/C122S/G151N (enzyme)
# chain: B8 chain with Q23Y, S26T, D91M, V93S, G146N, D189Q
# B22: MTSP-1 protease domain Q38H/I41T/D96M/ins97aA/C122S/G151D (enzyme)
# chain: B8 chain with Q23H, S26T, D91M, V93A, G146D, D189Q
# B23: MTSP-1 protease domain Q38W/I41V/D96R/ins97aA/C122S/G151N (enzyme)
# chain: B8 chain with Q23W, S26V, D91R, V93A, G146N, D189Q
# B24: MTSP-1 protease domain Q38F/I41V/D96Q/ins97aT/C122S/G151D (enzyme)
# chain: B8 chain with Q23F, S26V, D91Q, V93T, G146D, D189Q
# B25: MTSP-1 protease domain I41S/ins97aT/F99L/C122S/Q175R/Q192H (enzyme)
# chain: B8 chain with V93T, F95L, Q170R, D189H
# B26: MTSP-1 protease domain I41S/F97G/ins97aA/T98L/C122S/Q192A (enzyme)
# chain: B8 chain with F92G, V93A, T94L, D189A
# B27: MTSP-1 protease domain Q38H/I41S/D96K/ins97aT/C122S/G151K/Q192A (enzyme)
# chain: B8 chain with Q23H, D91K, V93T, G146K, D189A
# B28: MTSP-1 Q38H/I41S/F60eS/Y60gW/D96K/F97G/ins97aV/T98P/F99L/C122S/G151H/Q175L/Q192D (enzyme)
# chain: B8 chain with Q23H, F50S, Y52W, D91K, F92G, T94P, F95L, G146H, Q170L
# B29: MTSP-1 protease domain I41S/F97A/ins97aV/T98L/C122S/Q192A (enzyme)
# chain: B8 chain with F92A, T94L, D189A
# B30: MTSP-1 protease domain Q38H/I41S/D96S/ins97aK/C122S/G151N/Q192A (enzyme)
# chain: B8 chain with Q23H, D91S, V93K, G146N, D189A
# B31: MTSP-1 protease domain I41A/Y60gW/ins97aE/F99L/C122S/Q175M/Q192T (enzyme)
# chain: B8 chain with S26A, Y52W, V93E, F95L, Q170M, D189T
# B32: MTSP-1 protease domain L33M/Q38F/I41S/D96A/ins97aW/C122S/G151N/Q192S (enzyme)
# chain: B8 chain with L18M, Q23F, D91A, V93W, G146N, D189S
# B33: MTSP-1 protease domain Q38H/I41S/D96V/ins97aA/C122S/G151N/Q192A (enzyme)
# chain: B8 chain with Q23H, D91V, V93A, G146N, D189A
# B34: MTSP-1 Q38H/I41S/D60bT/F60eS/D96K/F97G/ins97aV/T98P/F99L/C122S/G151H/Q175L/Q192D (enzyme)
# chain: B8 chain with Q23H, D47T, F50S, D91K, F92G, T94P, F95L, G146H, Q170L
# B35: MTSP-1 protease domain I41S/F97del/T98S/F99L/C122S/Q192S (enzyme)
# chain: VVGGTDADEGEWPWQVSLHALGQGHSCGASLISPNWLVSAAHCYIDDRGFRYSDPTQWTAFLGLHDQSQRSAPGVQERRLKRIISHPFFNDSLDYDIALLELEKPAEYSSMVRPISLPDASHVFPAGKAIWVTGWGHTQYGGTGALILQKGEIRVINQTTCENLLPQQITPRMMCVGFLSGGVDSCSGDSGGPLSSVEADGRIFQAGVVSWGDGCAQRNKPGVYTRLPLFRDWIKENTGV
# Molecular target: plasma purified human complement protein C3 (human) (UniProt P01024)
# Experiment: cell-based or functional assay
# Chain of plasma purified human complement protein C3 (human) (P01024 23-667, chain 1 of 2): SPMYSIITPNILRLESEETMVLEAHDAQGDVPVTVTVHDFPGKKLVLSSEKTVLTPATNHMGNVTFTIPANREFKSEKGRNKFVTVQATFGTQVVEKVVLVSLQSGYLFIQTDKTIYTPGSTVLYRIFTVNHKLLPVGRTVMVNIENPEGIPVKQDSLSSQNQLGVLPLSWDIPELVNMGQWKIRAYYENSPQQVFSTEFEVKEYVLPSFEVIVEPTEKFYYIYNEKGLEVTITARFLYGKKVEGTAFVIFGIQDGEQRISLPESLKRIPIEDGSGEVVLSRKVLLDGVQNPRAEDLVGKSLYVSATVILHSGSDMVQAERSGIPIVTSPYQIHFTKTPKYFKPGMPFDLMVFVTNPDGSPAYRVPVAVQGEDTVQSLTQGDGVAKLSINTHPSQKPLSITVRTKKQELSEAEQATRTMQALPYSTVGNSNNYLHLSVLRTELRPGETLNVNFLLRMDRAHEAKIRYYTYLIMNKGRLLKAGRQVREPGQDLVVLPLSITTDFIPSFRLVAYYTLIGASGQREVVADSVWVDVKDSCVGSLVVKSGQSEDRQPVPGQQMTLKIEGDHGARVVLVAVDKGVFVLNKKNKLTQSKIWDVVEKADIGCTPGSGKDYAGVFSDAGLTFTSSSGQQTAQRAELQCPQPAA
# Chain of plasma purified human complement protein C3 (human) (P01024 672-1663, chain 2 of 2): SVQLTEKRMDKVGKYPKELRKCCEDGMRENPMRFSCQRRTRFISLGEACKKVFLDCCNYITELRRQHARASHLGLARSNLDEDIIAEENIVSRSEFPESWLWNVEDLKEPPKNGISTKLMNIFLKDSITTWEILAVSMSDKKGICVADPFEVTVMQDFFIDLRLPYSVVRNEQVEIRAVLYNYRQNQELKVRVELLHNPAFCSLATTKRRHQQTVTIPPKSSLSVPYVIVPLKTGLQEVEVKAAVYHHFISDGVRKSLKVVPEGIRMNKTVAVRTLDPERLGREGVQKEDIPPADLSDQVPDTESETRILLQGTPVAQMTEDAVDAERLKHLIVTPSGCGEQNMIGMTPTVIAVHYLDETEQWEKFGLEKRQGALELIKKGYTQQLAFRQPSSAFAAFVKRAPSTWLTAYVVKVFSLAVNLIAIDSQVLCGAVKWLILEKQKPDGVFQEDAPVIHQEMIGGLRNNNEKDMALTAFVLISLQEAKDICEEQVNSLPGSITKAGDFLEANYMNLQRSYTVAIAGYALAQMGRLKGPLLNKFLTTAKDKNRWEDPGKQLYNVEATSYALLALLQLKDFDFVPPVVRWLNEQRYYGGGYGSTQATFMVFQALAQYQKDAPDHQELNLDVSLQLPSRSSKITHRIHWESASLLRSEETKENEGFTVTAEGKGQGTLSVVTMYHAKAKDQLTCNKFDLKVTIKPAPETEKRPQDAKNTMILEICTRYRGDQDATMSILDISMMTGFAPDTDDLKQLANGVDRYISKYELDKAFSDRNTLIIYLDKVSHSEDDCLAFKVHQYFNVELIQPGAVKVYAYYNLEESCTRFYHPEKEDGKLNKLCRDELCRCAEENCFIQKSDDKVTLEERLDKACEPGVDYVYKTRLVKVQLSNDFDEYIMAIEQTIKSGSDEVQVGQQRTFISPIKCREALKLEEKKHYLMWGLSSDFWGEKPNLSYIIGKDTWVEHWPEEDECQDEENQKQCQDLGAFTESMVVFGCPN
EC50 hC3 cleavage [nM],EC50 of hC3 cleavage [nM],Binder
7.34,,B1
6.95,,B2
47.4,,B3
4.06,,B4
19.1,,B5
31,,B6
29.4,,B7
336,,B8
28,,B9
14.8,,B10
44.7,,B11
7.6,,B12
13.2,,B13
4.26,,B14
17.9,,B15
9.25,,B16
,8.64,B17
12,,B18

EC50 hC3 cleavage [nM],EC50 of hC3 cleavage [nM],Binder
9.5,,B19
10.2,,B20
12.5,,B21
10.8,,B22
4.49,,B23
9.89,,B24
27.5,,B25
6.75,,B26
19.2,,B27
,13.1,B28
5.3,,B29
16.7,,B30
8.9,,B31
10.6,,B32
16,,B33
,22.2,B34
23.2,,B35
